Test [1] addresses T1, H7CR-GFP fusion protein on transfected CHO cells (Homo sapiens (Human), UniProt Q96BF3 23-282).
T1 construct: not shown: GFP part
T1 sequence: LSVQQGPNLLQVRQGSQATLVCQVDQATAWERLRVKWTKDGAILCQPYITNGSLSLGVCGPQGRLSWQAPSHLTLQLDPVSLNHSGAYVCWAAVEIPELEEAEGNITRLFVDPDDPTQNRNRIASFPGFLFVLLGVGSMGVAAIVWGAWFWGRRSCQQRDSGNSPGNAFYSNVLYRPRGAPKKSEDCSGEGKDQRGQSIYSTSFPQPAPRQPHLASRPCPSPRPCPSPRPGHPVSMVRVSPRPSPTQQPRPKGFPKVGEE
Nature of the test: flow cytometry, 5 µg/ml variant on H7CR-GFP transfected CHO cells, anti-hIg PE secondary antibody [row HC1-2, column LC1-2]. As for the experimental part:
(§1) 5 μg/ml antibodies from thirty-six variants were incubated with H7CR-GFP fusion protein transfected CHO cells for 30 min at room temperature. Cells were then washed twice with 2 ml flow cytometry buffer, and resuspended in 100 μl flow cytometry buffer. 1 μl anti-hIg PE secondary antibody (Biolegend) was added and incubated with the cells for 15 mins Samples were then washed and resuspended in 100 μl flow cytometry buffer. Flow Cytometry data was acquired using BD Canto (BD Biosciences) in plate format and analyzed by FlowJo software.
In general terms: A flow cytometer gives signals particle by particle.

In test [2] the target is T2, human H7CR (B7-H7 counter-receptor) (human, UniProt Q96BF3 23-282).
T2 construct: Used for H7CR on CHO.hH7CR transfectants, human T cells and tonsil tissue; also called B7-H7CR; CD28H
T2 sequence: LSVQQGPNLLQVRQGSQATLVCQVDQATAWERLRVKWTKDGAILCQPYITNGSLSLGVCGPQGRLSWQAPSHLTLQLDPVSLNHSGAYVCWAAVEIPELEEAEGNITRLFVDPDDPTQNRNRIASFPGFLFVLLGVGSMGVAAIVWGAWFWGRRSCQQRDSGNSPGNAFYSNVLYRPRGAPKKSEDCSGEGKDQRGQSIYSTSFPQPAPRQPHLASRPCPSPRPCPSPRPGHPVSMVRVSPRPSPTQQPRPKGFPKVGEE
Nature of the test: binding to human H7CR as endogenously expressed on the surface of a cell.

Test [3] deals with T1, H7CR-GFP fusion protein on transfected …. The test is described as follows: flow cytometry, 5 µg/ml variant on H7CR-GFP transfected CHO cells, anti-hIg PE secondary antibody [row HC1-1, column LC1-1]. As for the experimental part:
as §1

The target is the same in test [4]. Nature of the test: flow cytometry, 5 µg/ml variant on H7CR-GFP transfected CHO cells, anti-hIg PE secondary antibody [row HC1-2, column LC1-3]. As for the experimental part:
as §1

For test [5] the target is unchanged. The test is described as follows: flow cytometry, 5 µg/ml variant on H7CR-GFP transfected CHO cells, anti-hIg PE secondary antibody [row HC1-2, column LC2-1]. On the procedure: as §1
The target is the same in test [6]. Nature of the test: flow cytometry, 5 µg/ml variant on H7CR-GFP transfected CHO cells, anti-hIg PE secondary antibody [row HC1-1, column LC2-1]. On the procedure:
as §1

Test [7] has the same target. The test is described as follows: flow cytometry, 5 µg/ml variant on H7CR-GFP transfected CHO cells, anti-hIg PE secondary antibody [row HC1-1, column LC2-2]. On the procedure:
as §1

For test [8] the target is unchanged. Nature of the test: flow cytometry, 5 µg/ml variant on H7CR-GFP transfected CHO cells, anti-hIg PE secondary antibody [row HC1-1, column LC1-3]. As for the experimental part:
as §1

Test [9] shares this target. Nature of the test: flow cytometry, 5 µg/ml variant on H7CR-GFP transfected CHO cells, anti-hIg PE secondary antibody [row HC1-1, column LC2-3]. On the procedure:
as §1

Test [10] has the same target. Nature of the test: flow cytometry, 5 µg/ml variant on H7CR-GFP transfected CHO cells, anti-hIg PE secondary antibody [row HC1-1, column LC1-2]. On the procedure: as §1
Test [11] has the same target. The test is described as follows: flow cytometry, 5 µg/ml variant on H7CR-GFP transfected CHO cells, anti-hIg PE secondary antibody [row HC1-2, column LC1-1]. On the procedure: as §1
For test [12], the target named is T2, human H7CR (B7-H7 counter-receptor). The test is described as follows: flow cytometry, 5 µg/ml mAb on H7CR CHO stable transfectants [C]. As for the experimental part:
5 μg/ml H7CR 1.3, 4.5 and 7.8 mAbs was used to stain H7CR stable transfectants to show binding specificity (FIG. 4). 10 μg/ml B7-H7mIg fusion protein was also used to stain H7CR CHO transfectants. H7CR mAbs were added to the system to evaluate the blocking capability of H7CR mAbs on B7-H7-H7CR interactions (FIG. 5). Immunohistochemistry staining for H7CR on human tonsil paraffin-embedded section was performed with 4.5 antibody at a concentration of 5 μg/ml using a standard protocol (FIG. 6). For cell surface staining and analysis by flow cytometry, cells were incubated with the indicated mAb for 30 min at 4° C., washed with buffer and analyzed. Expression of H7CR on human and mouse PBMC was evaluated by lineage marker and 1.3 antibody staining (FIG. 7-11). Expression of B7-H7 on activated monocyte-derived DC was evaluated by anti-B7-H7 antibody staining (FIG. 12).

B1: 4.5 humanized variant 8 (HC1-2 / LC1-2) (antibody, V domains shown)
VH: QVQLQESGPGLVKPSQTLSLTCTVSGFSITTGGYYWNWIRQHPGKKLEWIGYIYTSGRTSYNPSLKSRVTISRDTSKNQFSLKLSSVTAADTAVYYCADMADKGGWFAYWGQGTLVTVSS
VL: DIVMTQSPDSLAVSLGERATINCKSSQSLFSSNTKRNYLNWYQQKPGQPPKLLIYHASTRLSGVPDRFSGSGSGTDFTLTISSLQAEDVADYFCQQHYETPLTFGDGTRLEIK
notes: Variable domains only; detected with anti-hIg secondary; also called VH1B / VL1B
B1: the binding result in [1] and in [2] was “binds” each time.

B2: 4.5 humanized variant 1 (HC1-1 / LC1-1) (antibody, V domains shown)
VH: QVQLQESGPGLVKPSQTLSLTCTVSGFSITTGGYYWSWIRQHPGKGLEWIGYIYTSGRTYYNPSLKSRVTISVDTSKNQFSLKLSSVTAADTAVYYCADMADKGGWFAYWGQGTLVTVSS
VL: DIVMTQSPDSLAVSLGERATINCKSSQSLFSSNTKRNYLAWYQQKPGQPPKLLIYHASTRESGVPDRFSGSGSGTDFTLTISSLQAEDVAVYYCQQHYETPLTFGQGTRLEIK
notes: Variable domains only; detected with anti-hIg secondary; also called VH1A / VL1A
As for B2, the binding result in test [2] and in test [3] was “binds” each time.

B3: 4.5 humanized variant 9 (HC1-2 / LC1-3) (antibody, V domains shown)
VH: QVQLQESGPGLVKPSQTLSLTCTVSGFSITTGGYYWNWIRQHPGKKLEWIGYIYTSGRTSYNPSLKSRVTISRDTSKNQFSLKLSSVTAADTAVYYCADMADKGGWFAYWGQGTLVTVSS
VL: DIVMTQSPDSLAVSLGERATINCLSSQSLFSSNTKRNYLNWYQQKPGQSPKLLIYHASTRLSGVPDRFSGSGSGTDFTLTISSLQAEDVADYFCQQHYETPLTFGDGTRLEIK
notes: Variable domains only; detected with anti-hIg secondary; also called VH1B / VL1C
With B3, the binding result in test [2] and in [4] was “binds” in each case.

B4: 4.5 humanized variant 10 (HC1-2 / LC2-1) (antibody, V domains shown)
VH: QVQLQESGPGLVKPSQTLSLTCTVSGFSITTGGYYWNWIRQHPGKKLEWIGYIYTSGRTSYNPSLKSRVTISRDTSKNQFSLKLSSVTAADTAVYYCADMADKGGWFAYWGQGTLVTVSS
VL: DIVMTQTPLSLPVTPGEPASISCRSSQSLFSSNTKRNYLDWYLQKPGQSPQLLIYHASYRASGVPDRFSGSGSGTDFTLKISRVEAEDVGVYYCQQHYETPLTFGQGTRLEIK
notes: Variable domains only; detected with anti-hIg secondary; also called VH1B / VL2A
In the case of B4, the binding result in test [2] and in test [5] was “binds” in each case.

B5: 4.5 humanized variant 4 (HC1-1 / LC2-1) (antibody, V domains shown)
VH: QVQLQESGPGLVKPSQTLSLTCTVSGFSITTGGYYWSWIRQHPGKGLEWIGYIYTSGRTYYNPSLKSRVTISVDTSKNQFSLKLSSVTAADTAVYYCADMADKGGWFAYWGQGTLVTVSS
VL: DIVMTQTPLSLPVTPGEPASISCRSSQSLFSSNTKRNYLDWYLQKPGQSPQLLIYHASYRASGVPDRFSGSGSGTDFTLKISRVEAEDVGVYYCQQHYETPLTFGQGTRLEIK
notes: Variable domains only; detected with anti-hIg secondary; also called VH1A / VL2A
On to B5, for which the binding result in test [2] and in [6] was “binds” each time.

B6: 4.5 humanized variant 5 (HC1-1 / LC2-2) (antibody, V domains shown)
VH: QVQLQESGPGLVKPSQTLSLTCTVSGFSITTGGYYWSWIRQHPGKGLEWIGYIYTSGRTYYNPSLKSRVTISVDTSKNQFSLKLSSVTAADTAVYYCADMADKGGWFAYWGQGTLVTVSS
VL: DIVMTQTPLSLPVTPGEPASISCRSSQSLFSSNTKRNYLNWYLQKPGQSPKLLIYHASTRLSGVPDRFSGSGSGTDFTLKISRVEAEDVGDYFCQQHYETPLTFGDGTRLEIK
notes: Variable domains only; detected with anti-hIg secondary; also called VH1A / VL2B
As to B6, the binding result in test [7] and in test [2] was “binds” each time.

B7: 4.5 humanized variant 3 (HC1-1 / LC1-3) (antibody, V domains shown)
VH: QVQLQESGPGLVKPSQTLSLTCTVSGFSITTGGYYWSWIRQHPGKGLEWIGYIYTSGRTYYNPSLKSRVTISVDTSKNQFSLKLSSVTAADTAVYYCADMADKGGWFAYWGQGTLVTVSS
VL: DIVMTQSPDSLAVSLGERATINCLSSQSLFSSNTKRNYLNWYQQKPGQSPKLLIYHASTRLSGVPDRFSGSGSGTDFTLTISSLQAEDVADYFCQQHYETPLTFGDGTRLEIK
notes: Variable domains only; detected with anti-hIg secondary; also called VH1A / VL1C
Regarding B7, the binding result in [8] and in [2] was “binds” throughout.

B8: 4.5 humanized variant 6 (HC1-1 / LC2-3) (antibody, V domains shown)
VH: QVQLQESGPGLVKPSQTLSLTCTVSGFSITTGGYYWSWIRQHPGKGLEWIGYIYTSGRTYYNPSLKSRVTISVDTSKNQFSLKLSSVTAADTAVYYCADMADKGGWFAYWGQGTLVTVSS
VL: DIVMTQTPSSLPVTPGEPASISCLSSQSLFSSNTKRNYLNWYLQKPGQSPKLLIYHASTRLSGVPDRFSGSGSGTDFTLKISRVEAEDVGDYFCQQHYETPLTFGDGTRLEIK
notes: Variable domains only; detected with anti-hIg secondary; also called VH1A / VL2C
As for B8, the binding result in test [2] and in test [9] was “binds” in each case.

B9: 4.5 humanized variant 2 (HC1-1 / LC1-2) (antibody, V domains shown)
VH: QVQLQESGPGLVKPSQTLSLTCTVSGFSITTGGYYWSWIRQHPGKGLEWIGYIYTSGRTYYNPSLKSRVTISVDTSKNQFSLKLSSVTAADTAVYYCADMADKGGWFAYWGQGTLVTVSS
VL: DIVMTQSPDSLAVSLGERATINCKSSQSLFSSNTKRNYLNWYQQKPGQPPKLLIYHASTRLSGVPDRFSGSGSGTDFTLTISSLQAEDVADYFCQQHYETPLTFGDGTRLEIK
notes: Variable domains only; detected with anti-hIg secondary; also called VH1A / VL1B
Turning to B9, the binding result in test [2] and in test [10] was “binds” throughout.

B10: 4.5 humanized variant 7 (HC1-2 / LC1-1) (antibody, V domains shown)
VH: QVQLQESGPGLVKPSQTLSLTCTVSGFSITTGGYYWNWIRQHPGKKLEWIGYIYTSGRTSYNPSLKSRVTISRDTSKNQFSLKLSSVTAADTAVYYCADMADKGGWFAYWGQGTLVTVSS
VL: DIVMTQSPDSLAVSLGERATINCKSSQSLFSSNTKRNYLAWYQQKPGQPPKLLIYHASTRESGVPDRFSGSGSGTDFTLTISSLQAEDVAVYYCQQHYETPLTFGQGTRLEIK
notes: Variable domains only; detected with anti-hIg secondary; also called VH1B / VL1A
In the case of B10, the binding result in test [2] and in [11] was “binds” each time.

B11: hamster anti-human H7CR antibody clone 7.8 (antibody, V domains shown)
VH: QIQLQESGPGLVKPSQSLSLTCSVTGFSITTGGYYWNWIRQFPGKKLEWMGYIYSSGRTSYNPSLKSRISITRDTSKNQFFLQLNSVTTEDTATYYCADMADKGGWFDYWGQGTLVTVSS
VL: DIVMTQSPSSLTVSAGEKVTISCLSSQSLFSSNTNRNYLSWYLQRPGQSPKLLIYHASTRLTGVPGRFIGSGSGTDFTLTVSTVQAGDLGDYFCQQHYVTPLTFGDGTRLEIK
notes: Hamster monoclonal antibody; also called H7CR7.8
B11: the binding result in test [12] is given as “binds”.

The record behind these values is patent US20160024210A1 (AstraZeneca / MedImmune, published 2016).
